Measured values: patent publication US20260042834A1 (HBM ALPHA THERAPEUTICS, published 2026)
Values joined by “and” are separate entries in the source; they are usually repeats but may differ in a detail not shown here. Equal entries are not always repeated.

Target: T1, corticotropin-releasing hormone (CRH) peptide (human and mouse (same sequence), not fully specified)
T1 peptide: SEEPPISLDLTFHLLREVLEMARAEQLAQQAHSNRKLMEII
Assay: cell-based or functional assay

Binder | hCRHR1 Luciferase Reporter Assay IC50 | mCrhr1 Luciferase Reporter Assay IC50
PR302341-10 (antibody, human IgG1, kappa, V domains shown) VH: QVQLVQSGAEVKKPGASVKVSCKASGYTFTDYFMKWVRQAPGQGLEWMGVINPNNGDIFYNQKFKGRVTMTVDKSTSTAYMELSSLRSEDTAVYYCARGTDRALFAYWGQGTLVTVSS VL: DVVMTQTPLSSPVTLGQPASISCRSGQSIVHSDGNTYLEWYQQRPGQPPRLLIYKVSNRFSGVPDRFSGSGAGTDFTLKISRVEAEDLGVYYCFQGSHIPWTFGGGTKVEIKR | 0.11 nM | 0.29 nM
PR302341-25 (antibody, human IgG1, kappa, V domains shown) VH: QVQLVQSGAEVKKPGASVKVSCKASGYTFTDYFMKWVRQAPGQRLEWMGVINPNNGDIFYNQKFKGRVTITVDKSASTAYMELSSLRSEDTAVYYCARGTDRALFAYWGQGTLVTVSS VL: DVVMTQTPLSLSVTPGQPASISCRSGQSIVHSDGNTYLEWYLQKPGQSPQLLIYKVSNRFSGVPDRFSGSGSGTDFTLKISRVEAEDLGVYYCFQGSHIPWTFGGGTKVEIKR | 0.711 nM | 
PR302341-26 (antibody, human IgG1, kappa, V domains shown) VH: QVQLVQSGAEVKKPGASVKVSCKASGYTFTDYFMKWVRQAPGQGLEWMGVINPNNGDIFYNQKFKGRVTMTVDKSISTAYMELSRLRSDDTAVYYCARGTDRALFAYWGQGTLVTVSS VL: DVVMTQTPLSSPVTLGQPASISCRSGQSIVHSDGNTYLEWYQQRPGQPPRLLIYKVSNRFSGVPDRFSGSGAGTDFTLKISRVEAEDLGVYYCFQGSHIPWTFGGGTKVEIKR | 0.273 nM | 
PR302341-27 (antibody, human IgG1, kappa, V domains shown) VH: QVQLVQSGAEVKKPGASVKVSCKASGYTFTDYFMKWVRQAPGQGLEWMGVINPNNGDIFYNQKFKGRVTMTVDKSISTAYMELSRLRSDDTAVYYCARGTDRALFAYWGQGTLVTVSS VL: DVVMTQTPLSLSVTPGQPASISCRSGQSIVHSDGNTYLEWYLQKPGQSPQLLIYKVSNRFSGVPDRFSGSGSGTDFTLKISRVEAEDLGVYYCFQGSHIPWTFGGGTKVEIKR | 0.518 nM | 
PR302341-24 (antibody, human IgG1, kappa, V domains shown) VH: QVQLVQSGAEVKKPGASVKVSCKASGYTFTDYFMKWVRQAPGQRLEWMGVINPNNGDIFYNQKFKGRVTITVDKSASTAYMELSSLRSEDTAVYYCARGTDRALFAYWGQGTLVTVSS VL: DVVMTQTPLSSPVTLGQPASISCRSGQSIVHSDGNTYLEWYQQRPGQPPRLLIYKVSNRFSGVPDRFSGSGAGTDFTLKISRVEAEDLGVYYCFQGSHIPWTFGGGTKVEIKR | 0.192 nM | 0.156 nM
PR302341 (antibody, human IgG1, kappa, V domains shown) VH: EVQLQQSGPELVKPGASVKMSCKASGYTFTDYFMKWVKQSHGESLEWIGVINPNNGDIFYNQKFKGKATLTVDKSSSTAFMQLNSLTSEDSAVYSCARGTDRALFAYWGQGTLVAVSA VL: DVLMTQTPLSLPVSLGDQASISCRSGQSIVHSDGNTYLEWYLQRPGQSPRLLIYKVSNRFSGVPDRFSGSGSGTDFTLKISRVGAEDLGIYYCFQGSHIPWTFGGGTKLEVKR |  | 0.611 nM
PR302341-23 (antibody, human IgG1, kappa, V domains shown) VH: QVQLVQSGAEVKKPGASVKVSCKASGYTFTDYFMKWVRQAPGQGLEWMGVINPNNGDIFYNQKFKGRVTMTVDKSISTAYMELSRLRSDDTAVYYCARGTDRALFAYWGQGTLVTVSS VL: DVVMTQSPLSLPVTLGQPASISCRSGQSIVHSDGNTYLEWYQQRPGQSPRLLIYKVSNRFSGVPDRFSGSGSGTDFTLKISRVEAEDLGVYYCFQGSHIPWTFGGGTKVEIKR | 0.043 nM | 0.111 nM
PR302341-20 (antibody, human IgG1, kappa, V domains shown) VH: QVQLVQSGAEVKKPGASVKVSCKASGYTFTDYFMKWVRQAPGQRLEWMGVINPNNGDIFYNQKFKGRVTITRDTSASTAYMELSSLRSEDTAVYYCARGTDRALFAYWGQGTLVTVSS VL: DVVMTQSPLSLPVTLGQPASISCRSGQSIVHSDGNTYLEWYQQRPGQSPRLLIYKVSNRFSGVPDRFSGSGSGTDFTLKISRVEAEDLGVYYCFQGSHIPWTFGGGTKVEIKR | 0.162 nM | 0.451 nM

Target: T1, corticotropin-releasing hormone (CRH) …
Assay: cell-based or functional assay
Remark: another data set of the same source

Binder | hCRHR1 Luciferase Reporter Assay IC50 | mCrhr1 Luciferase Reporter Assay IC50
PR302341-10 (antibody, human IgG1, kappa, V domains shown) VH: QVQLVQSGAEVKKPGASVKVSCKASGYTFTDYFMKWVRQAPGQGLEWMGVINPNNGDIFYNQKFKGRVTMTVDKSTSTAYMELSSLRSEDTAVYYCARGTDRALFAYWGQGTLVTVSS VL: DVVMTQTPLSSPVTLGQPASISCRSGQSIVHSDGNTYLEWYQQRPGQPPRLLIYKVSNRFSGVPDRFSGSGAGTDFTLKISRVEAEDLGVYYCFQGSHIPWTFGGGTKVEIKR | 0.342 nM | 1.6 nM
PR302341 (antibody, human IgG1, kappa, V domains shown) VH: EVQLQQSGPELVKPGASVKMSCKASGYTFTDYFMKWVKQSHGESLEWIGVINPNNGDIFYNQKFKGKATLTVDKSSSTAFMQLNSLTSEDSAVYSCARGTDRALFAYWGQGTLVAVSA VL: DVLMTQTPLSLPVSLGDQASISCRSGQSIVHSDGNTYLEWYLQRPGQSPRLLIYKVSNRFSGVPDRFSGSGSGTDFTLKISRVGAEDLGIYYCFQGSHIPWTFGGGTKLEVKR | 0.437 nM | 1.71 nM
PR302341-23 (antibody, human IgG1, kappa, V domains shown) VH: QVQLVQSGAEVKKPGASVKVSCKASGYTFTDYFMKWVRQAPGQGLEWMGVINPNNGDIFYNQKFKGRVTMTVDKSISTAYMELSRLRSDDTAVYYCARGTDRALFAYWGQGTLVTVSS VL: DVVMTQSPLSLPVTLGQPASISCRSGQSIVHSDGNTYLEWYQQRPGQSPRLLIYKVSNRFSGVPDRFSGSGSGTDFTLKISRVEAEDLGVYYCFQGSHIPWTFGGGTKVEIKR | 0.351 nM | 1.19 nM
PR302341-20 (antibody, human IgG1, kappa, V domains shown) VH: QVQLVQSGAEVKKPGASVKVSCKASGYTFTDYFMKWVRQAPGQRLEWMGVINPNNGDIFYNQKFKGRVTITRDTSASTAYMELSSLRSEDTAVYYCARGTDRALFAYWGQGTLVTVSS VL: DVVMTQSPLSLPVTLGQPASISCRSGQSIVHSDGNTYLEWYQQRPGQSPRLLIYKVSNRFSGVPDRFSGSGSGTDFTLKISRVEAEDLGVYYCFQGSHIPWTFGGGTKVEIKR | 0.188 nM | 1.62 nM

Target: T1, corticotropin-releasing hormone (CRH) …
Assay: cell-based or functional assay
Remark: another data set of the same source

Binder | hCRHR1 Luciferase Reporter Assay IC50 | mCrhr1 Luciferase Reporter Assay IC50
PR302334-7 (antibody, human IgG1, kappa, V domains shown) VH: EVQLVESGGGLVQPGGSLRLSCAASGFTFSTYAMSWVRQAPGKGLEWVASIRSGGTTYYPDSVKGRFTISRDNSKNTLYLQMNSLRAEDTAVYYCTRGIDWGQGTTVTVSS VL: EIVMTQSPATLSVSPGERATLSCKASQSVNNDVAWYQQKPGQAPRLLIYYASNRYTGIPARFSGSGSGTEFTLTISSLQSEDFAVYYCQQDYSSWTFGGGTKVEIKR | 0.996 nM | 
PR302334-8 (antibody, human IgG1, kappa, V domains shown) VH: EVQLVESGGGLVQPGGSLRLSCAASGFTFSTYAMSWVRQAPGKGLEWVASIRSGGTTYYPDSVKGRFTISRDNSKNTLYLQMNSLRAEDTAVYYCTRGIDWGQGTTVTVSS VL: EIVMTQSPATLSVSPGERATLSCKASQSVNNDVAWYQQKPGQAPRLLIYYASNRYTGIPARFSGSGSGTEFTLTISSLQSEDLAVYFCQQDYSSWTFGGGTKVEIKR | 0.816 nM | 2.61 nM
PR302334-11 (antibody, human IgG1, kappa, V domains shown) VH: EVQLVESGGGLVQPGGSLRLSCAASGFTFSTYAMSWVRQAPGKGLEWVASIRSGGTTYYPDSVKGRFTISRDNSKNTLYLQMNSLRAEDTAVYYCTRGIDWGQGTTVTVSS VL: DIQMTQSSLSASVSLGDRVTITCKASQSVNNDVAWYQQKPGKAPRLLIYYASNRYTGVPSRFSGSGSGTDFTFTISSLQPEDIATYYCQQDYSSWTFGGGTKVEIKR | 1 nM | 
PR302334-10 (antibody, human IgG1, kappa, V domains shown) VH: EVQLVESGGGLVQPGGSLRLSCAASGFTFSTYAMSWVRQAPGKGLEWVASIRSGGTTYYPDSVKGRFTISRDNSKNTLYLQMNSLRAEDTAVYYCTRGIDWGQGTTVTVSS VL: DIVMTQSPDSLAVSLGERATINCKASQSVNNDVAWYQQKPGQPPRLLIYYASNRYTGVPDRFSGSGSGTDFTLTISSLQAEDLAVYFCQQDYSSWTFGGGTKVEIKR | 0.839 nM | 2.66 nM
PR302334-9 (antibody, human IgG1, kappa, V domains shown) VH: EVQLVESGGGLVQPGGSLRLSCAASGFTFSTYAMSWVRQAPGKGLEWVASIRSGGTTYYPDSVKGRFTISRDNSKNTLYLQMNSLRAEDTAVYYCTRGIDWGQGTTVTVSS VL: DIVMTQSPDSLAVSLGERATINCKASQSVNNDVAWYQQKPGQPPRLLIYYASNRYTGVPDRFSGSGSGTDFTLTISSLQAEDVAVYYCQQDYSSWTFGGGTKVEIKR | 1.42 nM | 
PR302334 (antibody, human IgG1, kappa, V domains shown) VH: EVKLVESGGGLVKPGGSLKLSCAASGFTFSTYAMSWVRQTPEKRLEWVASIRSGGTTYYPDSVKGRFTISRDNARNILYLQMSSLRSEDTAIYYCTRGIDWGQGTLVTVSA VL: NIVMTQTPKFLLVSAGDRITITCKASQSVNNDVAWYQQKPGQSPKLLIYYASNRYTGVPDRFTGSGYGTDFTFTISTVQAEDLAVYFCQQDYSSWTFGGGTNLEIKR | 0.26 nM and 0.644 nM | 0.672 nM
PR302334-5 (antibody, human IgG1, kappa, V domains shown) VH: EVKLVESGGGLVKPGGSLKLSCAASGFTFSTYAMSWVRQTPEKRLEWVASIRSGGTTYYPDSVKGRFTISRDNARNILYLQMSSLRSEDTAIYYCTRGIDWGQGTLVTVSA VL: DIQMTQSSLSASVSLGDRVTITCKASQSVNNDVAWYQQKPGKAPRLLIYYASNRYTGVPSRFSGSGSGTDFTFTISSLQPEDIATYYCQQDYSSWTFGGGTKVEIKR | 0.325 nM | 
PR302334-1 (antibody, human IgG1, kappa, V domains shown) VH: EVKLVESGGGLVKPGGSLKLSCAASGFTFSTYAMSWVRQTPEKRLEWVASIRSGGTTYYPDSVKGRFTISRDNARNILYLQMSSLRSEDTAIYYCTRGIDWGQGTLVTVSA VL: EIVMTQSPATLSVSPGERATLSCKASQSVNNDVAWYQQKPGQAPRLLIYYASNRYTGIPARFSGSGSGTEFTLTISSLQSEDFAVYYCQQDYSSWTFGGGTKVEIKR | 0.624 nM | 
PR302334-2 (antibody, human IgG1, kappa, V domains shown) VH: EVKLVESGGGLVKPGGSLKLSCAASGFTFSTYAMSWVRQTPEKRLEWVASIRSGGTTYYPDSVKGRFTISRDNARNILYLQMSSLRSEDTAIYYCTRGIDWGQGTLVTVSA VL: EIVMTQSPATLSVSPGERATLSCKASQSVNNDVAWYQQKPGQAPRLLIYYASNRYTGIPARFSGSGSGTEFTLTISSLQSEDLAVYFCQQDYSSWTFGGGTKVEIKR | 0.597 nM | 
PR302334-6 (antibody, human IgG1, kappa, V domains shown) VH: EVKLVESGGGLVKPGGSLKLSCAASGFTFSTYAMSWVRQTPEKRLEWVASIRSGGTTYYPDSVKGRFTISRDNARNILYLQMSSLRSEDTAIYYCTRGIDWGQGTLVTVSA VL: DIQMTQSSLSASVSLGDRVTITCKASQSVNNDVAWYQQKPGKAPRLLIYYASNRYTGVPSRFSGSGSGTDFTFTISSLQPEDLATYFCQQDYSSWTFGGGTKVEIKR | 0.404 nM | 
PR302334-4 (antibody, human IgG1, kappa, V domains shown) VH: EVKLVESGGGLVKPGGSLKLSCAASGFTFSTYAMSWVRQTPEKRLEWVASIRSGGTTYYPDSVKGRFTISRDNARNILYLQMSSLRSEDTAIYYCTRGIDWGQGTLVTVSA VL: DIVMTQSPDSLAVSLGERATINCKASQSVNNDVAWYQQKPGQPPRLLIYYASNRYTGVPDRFSGSGSGTDFTLTISSLQAEDLAVYFCQQDYSSWTFGGGTKVEIKR | 0.553 nM | 
PR302334-3 (antibody, human IgG1, kappa, V domains shown) VH: EVKLVESGGGLVKPGGSLKLSCAASGFTFSTYAMSWVRQTPEKRLEWVASIRSGGTTYYPDSVKGRFTISRDNARNILYLQMSSLRSEDTAIYYCTRGIDWGQGTLVTVSA VL: DIVMTQSPDSLAVSLGERATINCKASQSVNNDVAWYQQKPGQPPRLLIYYASNRYTGVPDRFSGSGSGTDFTLTISSLQAEDVAVYYCQQDYSSWTFGGGTKVEIKR | 0.542 nM | 
